In this test the target is Nsp5 (SARS-CoV-2) (UniProt P0DTD1). The test can be described thus: fluorescence polarisation.

The record followed here is PMC10499821.

B1: DLG3_(577–592) (peptide)
peptide: TVKFHARTGMIESNR
Consider B1, for which the Kd is 7 µM.

B2: SHROOM2_(403–417) (peptide)
peptide: GASSRLQASLSSSDV
In turn, B2 gave a Kd of 280 µM.
